Molecular target: the molecule itself
Assay: AUC

B1: Liprin-β2 coiled-coil mutant C145S (complete coiled-coil construct, residues S100 through E315) (domain or fragment, human)
chain: MEKTRSAASNETYQERLARLEGDKESLILQVSVLTDQVEAQGEKIRDLEVSLEGHQVKLNAAEEMLQQELLSRTSLETQKLDLMTEVSELKLKLVGMEKEQREQEEKQRKAEELLQELRHLKIKVEELENERNQYEWKLKATKAEVAQLQEQVALKDAEIERLHSQLSRTAALHSESHTERDQEIQRLKMGMETLLLANEDKDRRIEELTGLLNQYRKVKE
- stoichiometry N: 2

Source: publication PMC3093129 (Biochemistry, 2011)
